We go through 20 molecules from patent publication US20260258139A1 (BRIGHAM AND WOMEN S HOSPITAL, published 2026).

Changes are numbered by the printed parent chain.

As a reminder, the Kd is the concentration at which binding is half-saturated. A higher Kd goes with a looser complex. The koff is the first-order rate constant of dissociation. High values mean fast dissociation, low ones slow dissociation. The kon is the second-order rate constant of association. Low readings indicate slow association, high ones fast association.

Assay [1] concerns the target T1, human KLRB1 extracellular domain (ECD), amino acids 67-225 of human KLRB1 protein (human, UniProt Q12918 67-225).
T1 construct: Soluble analyte in SPR; also called KLRB1 ECD; CD161 ECD
T1 sequence: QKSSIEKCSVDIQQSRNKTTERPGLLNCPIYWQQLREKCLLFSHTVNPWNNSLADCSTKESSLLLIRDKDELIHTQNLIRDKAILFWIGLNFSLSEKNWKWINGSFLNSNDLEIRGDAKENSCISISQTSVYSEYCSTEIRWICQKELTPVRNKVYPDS
The assay can be described thus: SPR (Biacore 8K), antibody fixed on chip, human KLRB1 ECD as analyte. The protocol: (§1) Various humanized antibodies derived from humanized variants of antibody 10A3D6 with human IgG1-kappa were produced in CHO cells and then assayed for binding against human KLRB1 extracellular domain (ECD) via surface plasma resonance (SPR). Human KLRB1 extracellular domain was amino acids 67-225 from human KLRB1 protein (SEQ ID NO: 1). […] Antibody was fixed to the chip and analyte of human KLRB1 extracellular domain (ECD) was flowed over the surface at 30 ul/min, with contact time 120 seconds and dissociation time 360 seconds. The results are shown from two separate experiments in Tables 20 and 21.

The target of assay [2] is T1, human KLRB1 extracellular domain (ECD), …. The assay can be described thus: SPR (Biacore 8K), antibody fixed on chip, human KLRB1 ECD as analyte; second experiment. The protocol:
as §1
A general note: Surface plasmon resonance follows binding to a sensor surface in real time, without labels.

For assay [3], the target named is T2, human KLRB1 expressed on CHO-hum-KLRB1 cells (human, UniProt Q12918 1-225).
T2 sequence: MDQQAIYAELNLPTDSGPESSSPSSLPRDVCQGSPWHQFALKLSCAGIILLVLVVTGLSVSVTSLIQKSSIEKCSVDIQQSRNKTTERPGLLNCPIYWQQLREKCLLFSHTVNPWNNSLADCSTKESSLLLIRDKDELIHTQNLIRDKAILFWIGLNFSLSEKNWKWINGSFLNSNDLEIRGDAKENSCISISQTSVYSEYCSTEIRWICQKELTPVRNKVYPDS
Kind of assay: cell-based or functional assay.

Assay [4] concerns the target T2, human KLRB1 expressed on CHO-hum-KLRB1 …. Kind of assay: cell-based or functional assay. The source holds these as a separate data set.

B1: antibody 11.45 (antibody, human IgG1, kappa, V domains shown)
VH: QVQLVQSGAEVKKPGASVKVSCKASGYTFTGYTMNWVRQAPGQGLEWMGLINPSSGGTYYNQKFKDRVTMTRDTSISTAYMELSRLRSDDTAVYYCARLGDNYRGYFDYWGQGTTVTVSS
VL: DIQLTQSPSFLSASVGDRVTITCKASQDVGTAVVWYQQKPGKAPKLLIDWASIRHTGVPSRFSGSGSGTEFTLTISSLQPEDFATYYCQQYSTYLYTFGGGTKLEIKR
notes: Human IgG1-kappa produced in CHO cells
In assay [1], B1 registered a Kd of 1.26 nM, a koff of 0.000227 s⁻¹ and an on-rate (kon) of 181000 M⁻¹ s⁻¹.

B2: antibody 13.4 (antibody, human IgG1, kappa, V domains shown)
VH: B1 VH with S55T
VL: EIVMTQSPATLSVSPGERATLSCRASQDVGTAVVWYQQKPGQAPRLLIDWASIRHTGIPARFSGSGSGTEFTLTISSLQSEDFAVYYCQQYSTWPLTFGGGTKVEIKR
notes: as for B1
For B2, in assay [2], the Kd stood at 14.6 nM, the dissociation rate constant (koff) was 0.00217 s⁻¹ and the on-rate constant (kon) was found to be 149000 M⁻¹ s⁻¹.

B3: 10A3D6hum2.2 (antibody, human IgG1, V domains shown)
VH: B1 VH with T28S, G44N, M48I, S54N, S55T, M70L, R72V, Y109S
VL: DIQLTQSPSFLSASVGDRVTITCKASQDVGTAVVWYQQKPGKAPKLLIDWASIRHTGVPSRFSGSGSGTEFTLTISSLQPEDFADYFCQQYSTYLYTFGGGTKLEIK
notes: tested as human IgG1-kappa produced in CHO cells
As for B3, the “EC50 for ADCC (target cell lysis, LDH release)” value (from here on “EC50 for ADCC”) in assay [3] stood at 0.0048 nM. In assay [1], this molecule came in with a dissociation constant Kd of 0.263 nM, a dissociation rate constant (koff) of 8.18e-05 s⁻¹ and a kon of 311000 M⁻¹ s⁻¹. In assay [4], the “Span (fitted span of the ADCC dose-response curve, % target cell lysis of CHO-K1/human KLRB1 cells with PBMCs, E:T=25:1)” value is 74.2 % Target Cell Lysis (axis; the table prints no unit).

B4: antibody 11.29 (antibody, human IgG1, kappa, V domains shown)
VH: B1 VH with T28S, Y109S
VL: B1 VL with T85D, Y87F
notes: as for B1
As to B4, in assay [1], the dissociation constant Kd came out at 0.743 nM, the off-rate constant (koff) amounted to 0.000207 s⁻¹ and the on-rate (kon) is 278000 M⁻¹ s⁻¹.

B5: antibody 11.27 (antibody, human IgG1, kappa, V domains shown)
VH: B1 VH with T28S, S55T, Y109S
VL: B1 VL with T85D, Y87F
notes: as for B1
In assay [1], B5 gave an equilibrium dissociation constant (Kd) of 0.314 nM, a koff of 0.000123 s⁻¹ and an association rate constant (kon) of 391000 M⁻¹ s⁻¹.

B6: antibody 13.6 (antibody, human IgG1, kappa, V domains shown)
VH: B1 VH with S55T
VL: B2 VL with D28S, A32N, V33L, V34A
notes: as for B1
In assay [2], B6 had a Kd of 44.8 nM, a koff of 0.00269 s⁻¹ and a kon of 60000 M⁻¹ s⁻¹.

B7: 10A3D6hum1.2 (antibody, human IgG1, V domains shown)
VH: B1 VH with T28S, S54N, S55T, Y109S
VL: B3 VL
notes: as for B3
In the case of B7, in assay [3], the “EC50 for ADCC” value worked out at 0.0058 nM. In assay [1], this molecule came in with a dissociation constant Kd of 0.279 nM, a koff of 0.000135 s⁻¹ and an on-rate (kon) of 485000 M⁻¹ s⁻¹. In assay [2], this molecule gave a dissociation constant Kd of 0.344 nM, a koff of 0.000107 s⁻¹ and an on-rate constant (kon) of 310000 M⁻¹ s⁻¹. Moreover, the “Span (fitted span of the ADCC dose-response curve, % target cell lysis of CHO-K1/human KLRB1 cells with PBMCs, E:T=25:1)” value in assay [4] is 75 % Target Cell Lysis (axis; the table prints no unit).

B8: antibody 12.3 (antibody, human IgG1, kappa, V domains shown)
VH: B1 VH with S55T
VL: DIQLTQSPSFLSASVGDRVTITCRASQGISSYLAWYQQKPGKAPKLLIYWASIRHTGVPSRFSGSGSGTEFTLTISSLQPEDFATYYCQQLSTYPYTFGGGTKLEIKR
notes: as for B1
In the case of B8, in assay [2], the dissociation constant (Kd) came out at 68.8 nM, the off-rate (koff) is 0.00135 s⁻¹ and the kon worked out at 19700 M⁻¹ s⁻¹.

B9: antibody 13.2 (antibody, human IgG1, kappa, V domains shown)
VH: B1 VH with S55T
VL: B2 VL with W94Y, P95L, L96Y
notes: as for B1
As for B9, the “EC50 for ADCC” value in assay [3] stood at 0.0083 nM. In addition, in assay [2], the equilibrium dissociation constant (Kd) is 0.444 nM, the off-rate constant (koff) worked out at 0.000133 s⁻¹ and the kon amounted to 300000 M⁻¹ s⁻¹. Besides, the “Span (fitted span of the ADCC dose-response curve, % target cell lysis of CHO-K1/human KLRB1 cells with PBMCs, E:T=25:1)” value in assay [4] was 77.8 % Target Cell Lysis (axis; the table prints no unit).

B10: antibody 11.12 (antibody, human IgG1, kappa, V domains shown)
VH: B1 VH with T28S, S54N, S55T
VL: B1 VL with T85D, Y87F
notes: as for B1
In assay [1], B10 registered a dissociation constant (Kd) of 0.275 nM, a dissociation rate constant (koff) of 0.00012 s⁻¹ and an on-rate (kon) of 434000 M⁻¹ s⁻¹.

B11: antibody 11.44.1 (antibody, human IgG1, kappa, V domains shown)
VH: B1 VH with T28S, Y109V
VL: B1 VL
notes: as for B1
In assay [1], B11 registered a dissociation constant Kd of 1.09 nM, a koff of 0.000234 s⁻¹ and a kon of 215000 M⁻¹ s⁻¹.

B12: antibody 12.1.3 (antibody, human IgG1, kappa, V domains shown)
VH: B1 VH with S55T
VL: B1 VL with K24R, D28G, V29I, T31S
notes: as for B1
In assay [2], B12 showed an equilibrium dissociation constant (Kd) of 1.75 nM, a koff of 0.000248 s⁻¹ and a kon of 141000 M⁻¹ s⁻¹.

B13: antibody 12.2 (antibody, human IgG1, kappa, V domains shown)
VH: B1 VH with S55T
VL: B8 VL with Y49D, L91Y, P95L
notes: as for B1
With B13, in assay [2], the Kd amounted to 1.54 nM, the koff is 0.000236 s⁻¹ and the on-rate (kon) turned out to be 153000 M⁻¹ s⁻¹.

B14: 10A3D6hum8.2 (antibody, human IgG1, V domains shown)
VH: B1 VH with T28S, G44N, M48I, S54A, S55T, M70L, R72V, Y109V
VL: B3 VL
notes: as for B3
In assay [1], B14 showed a Kd of 0.512 nM, a dissociation rate constant (koff) of 0.000171 s⁻¹ and an association rate constant (kon) of 335000 M⁻¹ s⁻¹.

B15: antibody 11.55 (antibody, human IgG1, kappa, V domains shown)
VH: B1 VH with T28S
VL: B1 VL with K24R
notes: as for B1
In assay [1], B15 had a Kd of 1.23 nM, a koff of 0.00022 s⁻¹ and a kon of 180000 M⁻¹ s⁻¹.

B16: antibody 11.54 (antibody, human IgG1, kappa, V domains shown)
VH: B1 VH with T28S
VL: B1 VL with T31S, T56S
notes: as for B1
As for B16, in assay [1], binding was characterised by a dissociation constant (Kd) of 2.24 nM, the koff is 0.000315 s⁻¹ and the kon worked out at 141000 M⁻¹ s⁻¹.

B17: antibody 12.0 (antibody, human IgG1, kappa, V domains shown)
VH: B1 VH with S55T
VL: B1 VL with K24R
notes: as for B1
B17: the “EC50 for ADCC” value in assay [3] was 0.0054 nM. In assay [2], this molecule returned a Kd of 0.597 nM, an off-rate constant (koff) of 0.000145 s⁻¹ and a kon of 243000 M⁻¹ s⁻¹. Further, the “Span (fitted span of the ADCC dose-response curve, % target cell lysis of CHO-K1/human KLRB1 cells with PBMCs, E:T=25:1)” value in assay [4] was 80.8 % Target Cell Lysis (axis; the table prints no unit).

B18: antibody 11.41.1 (antibody, human IgG1, kappa, V domains shown)
VH: B1 VH with T28S, S55T, Y109V
VL: B1 VL
notes: as for B1
B18: in assay [1], the Kd was 0.414 nM, the koff was 0.000167 s⁻¹ and the kon came to 403000 M⁻¹ s⁻¹.

B19: antibody 13.5 (antibody, human IgG1, kappa, V domains shown)
VH: B1 VH with S55T
VL: B2 VL with D28S
notes: as for B1
In assay [2], B19 displayed an equilibrium dissociation constant (Kd) of 20.3 nM, a koff of 0.00177 s⁻¹ and a kon of 87300 M⁻¹ s⁻¹.

B20: antibody 11.57 (antibody, human IgG1, kappa, V domains shown)
VH: B1 VH
VL: B1 VL with K24R, T31S, T56S
notes: as for B1
In assay [1], B20 gave a dissociation constant Kd of 2.08 nM, a koff of 0.000308 s⁻¹ and a kon of 148000 M⁻¹ s⁻¹. Also, in assay [2], the Kd is 2.52 nM, the koff came out at 0.000308 s⁻¹ and the on-rate constant (kon) is 122000 M⁻¹ s⁻¹.
